Assay results: patent publication US10709762B2, “Use of M-CSF for preventing or treating myeloid cytopenia and related complications” (priority 2013, dated 2020)

Tests used:
[1] = tested on: PU.1 promoter activation in single PU.1 negative HSC; assay: Time-lapse video imaging of GFP-negative sorted HSC from PU.1-GFP mice; assay type: cell-based
Protocol: Wherever possible our video microscopy protocols followed proposed guidelines^24. In detail, FACS sorted CD150+ CD34− KSLF HCS from wt C57/Bl6 or GFP-negative CD150+ CD34− KSLF HSC from PU.1-GFP reporter mouse^31 bone marrow were suspended in SCM supplemented with 100 U/ml penicillin and […] streptomycin, 20 ng/ml rSCF, 50 ng/ml rTPO+/−100 ng/ml rM-CSF and plated in Ibidi μ-slidesVI(0.4) (Biovalley SA, France). Time-lapse microscopy was performed using a Cell Observer system (Carl Zeiss Microscopy GmbH, Germany) at 37° C. and 5% CO2. Images were acquired every 10 minutes using 10× (A-plan 10×/0.45 Ph1) or 40× (Plan-Apochromat 40×/0.95 Korr M27) objectives in brightfield and fluorescence (GFP filters: EX BP 470/40; at 350 ms) with a COOLSNAP™ HQ2 monochrome camera (Photometrics) with a 2×2 binning and a metal halide 120W source for fluorescence illumination. For image analysis a matrix of 4×4 images was acquired for each time point. Images were stitched with AxioVision software (Carl Zeiss Microscopy GmbH, Germany) and processed with Fiji software^36 using a slight rolling ball subtraction of background and 1 pixel Gaussian blur. For background subtraction of brightfield images, the median of z-projection was subtracted from the time-lapse stack. Single cell tracking was performed with basic commands of ImageJ^37 and Fiji^36 software and with specific tracking plugin MTrackJ^38 in manual mode. Each cell was tracked manually frame-by-frame in the bright field channel and cross-controlled by two microscope specialists. Cells with non-standard morphology or size were rejected. The fluorescence signal was measured as the difference of maximum minus minimum intensity within a defined region of interest (ROI) around each cell. Cell properties and behaviour (cell division, cell death, position, fluorescence increase) were manually documented to build cumulated curves. R^39 and Excel (Microsoft Corporation) software was used to manage data and build graphics.

single HSC = assay: Single cell gene expression profiling of HSC (nanofluidic real time PCR); assay type: cell-based, mice; conditions: 16 h culture in the presence of M-CSF
Protocol: CD150+CD34− KSLF HSC or CD150+CD34− CD48− KSLF HSC (single cells) were sorted into S-clone SF-03 medium (Sanko Jyunyaku) with 10% FBS supplemented with 100 U/ml penicillin and […] streptomycin (both Invitrogen) and cultivated in uncoated U-Shape 96 well plates (Greiner) in 100 μl SCM, 20 ng/ml rSCF, 50 ng/ml rTPO+/−100 ng/ml rM-CSF or 100 ng/ml rGM-CSF or 100 ng/ml rG-CSF. All cytokines were murine and from PeproTech. Cell viability was analyzed by AnnexinV and Propidium iodide FACS staining^35.
Single cells were sorted using the autoclone module on a FACSARIA™ III sorter (Becton-Dickinson) directly into 96 wells plate in the CELLS DIRECT™ Reaction Mix (Invitrogen). Individual cell lysis, cDNA synthesis and amplification was performed according to FLUIDIGM Advanced Development Protocol and single cell microfluidic real time PCR using Dynamic Array IFCs (BIOMARK™ FLUIDIGM) was performed by a trained technician of FLUIDIGM Inc. Preamplified products (22 cycles) were diluted 5-fold prior to analysis with Universal PCR Master Mix and inventoried TAQMAN® gene expression assays (ABI) in 96.96 DYNAMIC ARRAY™ on a BIOMARK™ system (FLUIDIGM). Ct values were calculated from the system's software (BIOMARK™ Real-time PCR Analysis; FLUIDIGM) and filtered according to a set of quality control rules outlined below.

[2] = tested on: endogenous PU.1 protein in single HSC; assay: Intra-splenic injection of CFSE-labelled HSC, PU.1 immunofluorescence; assay type: in vivo, mice; conditions: M-CSF receptor deficient HSC
Protocol: For analysis of HSC in vivo, 1500 to 7000 FACS sorted CD150^+ CD34^− KSLF HSC were stained 10 min at 37° C. with 3 μM CFSE (Invitrogen) in PBS/0.5% BSA, washed 3× in PBS/0.5% BSA and injected in 30 μl PBS (containing or not 1 μg of isotype control or AFS98 α-M-CSFR antibody^26 or 2 μM GW2580, 10 μM Ly29400, 10 μM PD98059 or 2 μM SU6656 inhibitors in 0.9% DMSO) into the spleen of anesthetized mice. After 24 h spleens were embedded in OCT (Tissue-Tek, Sakura) and frozen at −80° C. Cryostat sections (5 μm) were prepared from the entire organ, dried and fixed 10 min in 4% PFA/PBS at room temperature (RT) and every 10th section was further processed. After washes in PBS, slides were blocked for 1 hour at RT in PBS/2% BSA/1% Donkey serum/1% FCS/0.1% saponin, incubated for 36 h at 4° C. with anti-PU.1 polyclonal antibody (Santa Cruz) in PBS/0.05% saponin (1:50), washed and incubated with secondary Alexa 546-donkey-anti-rabbit antibody (Molecular probes) in PBS/0.05% saponin (1:500). All immunofluorescence samples were mounted with ProLong Gold DAPI antifade (Molecular probes) and analyzed by multifluorescent microscopy on a Zeiss Axioplan 2. All CFSE+ cells were analysed for PU.1 expression up to ≥30 or ≥50 cells as indicated. Cell counts and staining were verified by a second trained microscopist blinded to sample identity. […]

B1: M-CSF: recombinant murine macrophage colony stimulating factor from PeproTech, used in Example 1 (protein, UniProt P07141 33-552, looked up)
Macrophage colony-stimulating …: KEVSEHCSHMIGNGHLKVLQQLIDSQMETSCQIAFEFVDQEQLDDPVCYLKKAFFLVQDIIDETMRFKDNTPNANATERLQELSNNLNSCFTKDYEEQNKACVRTFHETPLQLLEKIKNFFNETKNLLEKDWNIFTKNCNNSFAKCSSRDVVTKPDCNCLYPKATPSSDPASASPHQPPAPSMAPLAGLAWDDSQRTEGSSLLPSELPLRIEDPGSAKQRPPRSTCQTLESTEQPNHGDRLTEDSQPHPSAGGPVPGVEDILESSLGTNWVLEEASGEASEGFLTQEAKFSPSTPVGGSIQAETDRPRALSASPFPKSTEDQKPVDITDRPLTEVNPMRPIGQTQNNTPEKTDGTSTLREDHQEPGSPHIATPNPQRVSNSATPVAQLLLPKSHSWGIVLPLGELEGKRSTRDRRSPAELEGGSASEGAARPVARFNSIPLTDTGHVEQHEGSSDPQIPESVFHLLVPGIILVLLTVGGLLFYKWKWRSHRDPQTLDSSVGRPEDSSLTQDEDRQVELPV
[1]; culture in M-CSF
  proliferation or survival advantage of cultured HSC (video-microscopy): no proliferation or survival advantage
[1]; end of the 24 h observation period (18 to 42 hours of culture)
  PU.1+ cells developed versus control conditions: over two-fold more PU.1+ cells
[1]; in the presence of M-CSF versus control
  commitment events of PU.1 activation occurred earlier: 8 h
[1]; over the whole observation period
  rate of PU.1 activation events: higher rate
Single HSC
  cells with a myeloid gene expression signature: strong increase
  number of PU.1+ cells: doubling
[2]
  PU.1 activation in M-CSFR-/- HSC, M-CSF stimulated versus control recipients: no higher activation of PU.1
